Laboratory results from paper PMC11239505.

Molecular target: Gαi (in HEK cells only expressing Gαs and Gαi, GloSensor assay)

trafficking-enhanced eOPN3 derived from Anopheles stephensi (AsOPN3) (receptor)
GloSensor assay: decrease of the forskolin-stimulated cAMP bioluminescence signal after a 2-s 365-nm light pulse, HEK cells only expressing Gαs and Gαi: 62%

parapinopsin from the Japanese lamprey Lethenteron camtschaticum (LcPPO) (receptor)
GloSensor assay: decrease of the forskolin-stimulated cAMP bioluminescence signal after a 2-s 365-nm light pulse, HEK cells only expressing Gαs and Gαi: 63%
